Measured values taken from patent US20230365675A1 (published 2023).

Legend:
[1] = biological target: CD33-GFP fusion protein, wild type (WT), on 293FT cells (UniProt P20138); assay: FACS, WT CD33-GFP on 293FT cells
[2] = biological target: Biotinylated CD33 protein (UniProt P20138); assay: Octet competition on biotinylated CD33; competitor 424
CD33 on MOLM-13 cells = biological target: T1, CD33 on MOLM-13 cells (human, UniProt P20138 18-364); assay: FACS, MOLM-13 cells expressing CD33 against MOLM-13 CD33 knockout
T1 construct: whole, on cells; also called MOLM-13 cell line expressing CD33; wild-type MOLM-13 cells (CD33+)
T1 sequence (P20138 18-364): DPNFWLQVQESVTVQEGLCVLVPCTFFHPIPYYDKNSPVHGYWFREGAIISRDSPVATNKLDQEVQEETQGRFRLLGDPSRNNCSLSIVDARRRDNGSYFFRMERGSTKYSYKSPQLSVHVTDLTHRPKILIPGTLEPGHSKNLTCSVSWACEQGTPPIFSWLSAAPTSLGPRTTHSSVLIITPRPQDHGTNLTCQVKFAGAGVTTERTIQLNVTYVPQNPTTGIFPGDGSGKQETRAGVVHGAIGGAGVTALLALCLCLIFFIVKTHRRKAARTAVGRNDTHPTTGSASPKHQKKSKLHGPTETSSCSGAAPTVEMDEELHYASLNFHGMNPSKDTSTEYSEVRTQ
Source text: A naïve llama phage library was panned and screened to identify single domain antibodies that specifically recognize CD33. A MOLM-13 cell line expressing CD33 was used as a CD33-positive cell line, and a MOLM-13 cell line harboring a knockout of CD33 was used as a CD-33 negative cell line. A purified anti-human CD33 antibody was used as a positive control. Specific binding activity of identified binders was confirmed by FACS. The heavy chain variable region sequences of the identified binders are included herein.

[3] = biological target: Mutant CD33-GFP M12 (G88S) on 293FT cells (UniProt P20138); assay: FACS, mutant CD33-GFP on 293FT cells
Sequence of Mutant CD33-GFP M12 (G88S) on 293FT cells (P20138 18-364 G88S): as the sequence (P20138 18-364) above, with G71S counted along it

[4] = biological target: Mutant CD33-GFP N20D on 293FT cells (UniProt P20138); assay: FACS, mutant CD33-GFP on 293FT cells
Sequence of Mutant CD33-GFP N20D on 293FT cells (P20138 18-364 N20D): as the sequence (P20138 18-364) above, with N3D counted along it

[5] = biological target: Mutant CD33-GFP M10 (Y127A) on 293FT cells (UniProt P20138); assay: FACS, mutant CD33-GFP on 293FT cells
Sequence of Mutant CD33-GFP M10 (Y127A) on 293FT cells (P20138 18-364 Y127A): as the sequence (P20138 18-364) above, with Y110A counted along it

[6] = biological target: Mutant CD33-GFP M9 (Y49, 50A) on 293FT cells (UniProt P20138); assay: FACS, mutant CD33-GFP on 293FT cells
Sequence of Mutant CD33-GFP M9 (Y49, 50A) on 293FT cells (P20138 other isoform, or with tags, fused parts or gaps mutant): as the sequence (P20138 18-364) above, with Y32A, Y33A counted along it

[7] = biological target: Mutant CD33-GFP JS24 (Q24E) on 293FT cells (UniProt P20138); assay: FACS, mutant CD33-GFP on 293FT cells
Sequence of Mutant CD33-GFP JS24 (Q24E) on 293FT cells (P20138 18-364 Q24E): as the sequence (P20138 18-364) above, with Q7E counted along it

[8] = biological target: Mutant CD33-GFP M11 (L78T) on 293FT cells (UniProt P20138); assay: FACS, mutant CD33-GFP on 293FT cells
Sequence of Mutant CD33-GFP M11 (L78T) on 293FT cells (P20138 18-364 L78T): as the sequence (P20138 18-364) above, with L61T counted along it

[9] = biological target: Mutant CD33-GFP M16 (4889AII) on 293FT cells (UniProt P20138); assay: FACS, mutant CD33-GFP on 293FT cells
[10] = biological target: Mutant CD33-GFP M4 (R122D) on 293FT cells (UniProt P20138); assay: FACS, mutant CD33-GFP on 293FT cells
Sequence of Mutant CD33-GFP M4 (R122D) on 293FT cells (P20138 18-364 R122D): as the sequence (P20138 18-364) above, with R105D counted along it

[11] = biological target: Mutant CD33-GFP JS25 (V25M) on 293FT cells (UniProt P20138); assay: FACS, mutant CD33-GFP on 293FT cells
Sequence of Mutant CD33-GFP JS25 (V25M) on 293FT cells (P20138 18-364 V25M): as the sequence (P20138 18-364) above, with V8M counted along it

[12] = biological target: Mutant CD33-GFP JS23 (L23N) on 293FT cells (UniProt P20138); assay: FACS, mutant CD33-GFP on 293FT cells
Sequence of Mutant CD33-GFP JS23 (L23N) on 293FT cells (P20138 18-364 L23N): as the sequence (P20138 18-364) above, with L6N counted along it

[13] = biological target: Mutant CD33-GFP M14 (E170R) on 293FT cells (UniProt P20138); assay: FACS, mutant CD33-GFP on 293FT cells
Sequence of Mutant CD33-GFP M14 (E170R) on 293FT cells (P20138 18-364 E170R): as the sequence (P20138 18-364) above, with E153R counted along it

[14] = biological target: Mutant CD33-GFP M17 (F21Y) on 293FT cells (UniProt P20138); assay: FACS, mutant CD33-GFP on 293FT cells
Sequence of Mutant CD33-GFP M17 (F21Y) on 293FT cells (P20138 18-364 F21Y): as the sequence (P20138 18-364) above, with F4Y counted along it

[15] = biological target: Mutant CD33-GFP M13 (R91E) on 293FT cells (UniProt P20138); assay: FACS, mutant CD33-GFP on 293FT cells
Sequence of Mutant CD33-GFP M13 (R91E) on 293FT cells (P20138 18-364 R91E): as the sequence (P20138 18-364) above, with R74E counted along it

[16] = biological target: Mutant CD33-GFP JS28 (S28L) on 293FT cells (UniProt P20138); assay: FACS, mutant CD33-GFP on 293FT cells
Sequence of Mutant CD33-GFP JS28 (S28L) on 293FT cells (P20138 18-364 S28L): as the sequence (P20138 18-364) above, with S11L counted along it

[17] = biological target: Mutant CD33-GFP M15 (Q171A) on 293FT cells (UniProt P20138); assay: FACS, mutant CD33-GFP on 293FT cells
Sequence of Mutant CD33-GFP M15 (Q171A) on 293FT cells (P20138 18-364 Q171A): as the sequence (P20138 18-364) above, with Q154A counted along it

[18] = biological target: Mutant CD33-GFP M18 (353AAL) on 293FT cells (UniProt P20138); assay: FACS, mutant CD33-GFP on 293FT cells
[19] = biological target: Mutant CD33-GFP M5 (AEAD), quadruple mutant, on 293FT cells (UniProt P20138); assay: FACS, mutant CD33-GFP on 293FT cells
Sequence of Mutant CD33-GFP M5 (AEAD), quadruple mutant, on 293FT cells (P20138 other isoform, or with tags, fused parts or gaps mutant): as the sequence (P20138 18-364) above, with W5A, H28E, N82A, R105D counted along it

[20] = biological target: Mutant CD33-GFP M19 (348ATAI) on 293FT cells (UniProt P20138); assay: FACS, mutant CD33-GFP on 293FT cells
[21] = biological target: Biotinylated CD33 protein (UniProt P20138); assay: Octet competition on biotinylated CD33; competitor 420
[22] = biological target: T2, Mutant CD33-GFP M1 (W22A) on 293FT cells (UniProt P20138 18-364); assay: FACS, mutant CD33-GFP on 293FT cells
T2 construct: whole, on cells; not shown: GFP fused to CD33
T2 sequence (P20138 18-364 W22A): as the sequence (P20138 18-364) above, with W5A counted along it

[23] = biological target: T3, Mutant CD33-GFP M3 (N99A) on 293FT cells (UniProt P20138 18-364); assay: FACS, mutant CD33-GFP on 293FT cells
T3 construct: whole, on cells; not shown: GFP fused to CD33
T3 sequence (P20138 18-364 N99A): as the sequence (P20138 18-364) above, with N82A counted along it

[24] = biological target: T4, Mutant CD33-GFP M2 (H45E) on 293FT cells (UniProt P20138 18-364); assay: FACS, mutant CD33-GFP on 293FT cells
T4 construct: whole, on cells; not shown: GFP fused to CD33
T4 sequence (P20138 18-364 H45E): as the sequence (P20138 18-364) above, with H28E counted along it

[25] = biological target: Biotinylated CD33 protein (UniProt P20138); assay: Octet competition on biotinylated CD33; competitor 426
[26] = biological target: Biotinylated CD33 protein (UniProt P20138); assay: Octet competition on biotinylated CD33; competitor 389
[27] = biological target: Biotinylated CD33 protein (UniProt P20138); assay: Octet competition on biotinylated CD33; competitor 348
[28] = biological target: Biotinylated CD33 protein (UniProt P20138); assay: Octet competition on biotinylated CD33; competitor 429
[29] = biological target: Biotinylated CD33 protein (UniProt P20138); assay: Octet competition on biotinylated CD33; competitor 430
[30] = biological target: Biotinylated CD33 protein (UniProt P20138); assay: Octet competition on biotinylated CD33; competitor 416
[31] = biological target: T5, Mutant CD33-GFP M7 (R98D) on 293FT cells (UniProt P20138 18-364); assay: FACS, mutant CD33-GFP on 293FT cells
T5 construct: whole, on cells; not shown: GFP fused to CD33
T5 sequence (P20138 18-364 R98D): as the sequence (P20138 18-364) above, with R81D counted along it

[32] = biological target: T6, Mutant CD33-GFP M6 (F43N) on 293FT cells (UniProt P20138 18-364); assay: FACS, mutant CD33-GFP on 293FT cells
T6 construct: whole, on cells; not shown: GFP fused to CD33
T6 sequence (P20138 18-364 F43N): as the sequence (P20138 18-364) above, with F26N counted along it

[33] = biological target: T7, Mutant CD33-GFP M8 (K52A) on 293FT cells (UniProt P20138 18-364); assay: FACS, mutant CD33-GFP on 293FT cells
T7 construct: whole, on cells; not shown: GFP fused to CD33
T7 sequence (P20138 18-364 K52A): as the sequence (P20138 18-364) above, with K35A counted along it

[34] = biological target: Biotinylated CD33 protein (UniProt P20138); assay: Octet competition on biotinylated CD33; competitor 353
[35] = biological target: Biotinylated CD33 protein (UniProt P20138); assay: Octet competition on biotinylated CD33; competitor h195
[36] = biological target: Biotinylated CD33 protein (UniProt P20138); assay: Octet competition on biotinylated CD33; competitor 413

Sequence of CD33-GFP fusion protein, wild type (WT), on 293FT cells (P20138 18-364): as the sequence (P20138 18-364) above
Sequence of Biotinylated CD33 protein (P20138 18-259 limits assumed): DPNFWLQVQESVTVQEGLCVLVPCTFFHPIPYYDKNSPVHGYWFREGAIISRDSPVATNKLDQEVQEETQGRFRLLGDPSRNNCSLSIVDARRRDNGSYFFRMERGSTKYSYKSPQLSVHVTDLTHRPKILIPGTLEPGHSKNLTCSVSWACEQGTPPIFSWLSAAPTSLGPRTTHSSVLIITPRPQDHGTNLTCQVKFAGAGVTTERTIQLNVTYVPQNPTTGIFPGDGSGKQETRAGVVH

B1: sdCD33_5 (VHH)
VHH: QVQLQESGGGLVQPGGSLRLSCAASGSVFSIYAMAWYRQAPGKQRELVAVITSGGATNYADSVKGRFTISRDIAKKTLYLQMNTLKPEDTAVYYCYAHLLIQPFDRFYDYWGQGTQVTVSS
notes: sdAb from a naive llama phage library; also called 413; sdAb413
With B1 the FACS binding data [1] was 98, the Octet signal [2] was -0.0796 and the binding result (CD33 on MOLM-13 cells) was “binds”. For the same binder, the FACS binding data [3] was 98.6, the FACS binding data [4] was 56.7 and the FACS binding data [5] was 90.2. It also gave an FACS binding data [6] of 0.79, an FACS binding data [7] of 97 and an FACS binding data [8] of 58.5. For the same binder, the FACS binding data [9] was 98.3, the FACS binding data [10] was 76 and the FACS binding data [11] was 99.5. The FACS binding data [12] was 98.4, the FACS binding data [13] was 98.2 and the FACS binding data [14] was 84.6. For the same binder, the FACS binding data [15] was 98.5, the FACS binding data [16] was 99.4 and the FACS binding data [17] was 98.6. For the same binder, the FACS binding data [18] was 49.2, the FACS binding data [19] was 0.81 and the FACS binding data [20] was 99.3. For the same binder, the Octet signal [21] was 0.15, the FACS binding data [22] was 76.4 and the FACS binding data [23] was 96.8. For the same binder, the FACS binding data [24] was 5.93, the Octet signal [25] was 0.0667 and the Octet signal [26] was 0.483. It also gave an Octet signal [27] of -0.024, an Octet signal [28] of -0.0887 and an Octet signal [29] of 0.63. The Octet signal [30] was -0.0586, the FACS binding data [31] was 97 and the FACS binding data [32] was 97.5. The FACS binding data [33] was 91.4, the Octet signal [34] was 0.248 and the Octet signal [35] was 0.648.

B2: sdCD33_7 (VHH)
VHH: EVQLVESGGGLVQPGGSLRLSCVASGFTFKDYGMTWVRQAPGKALEWVSDINSAGDGIYYSDSVKGRFTISRDDSKGTLYLQMNSLTPEDTAIYYCAAERQRAGDVKRSLAPITAHIWGQGTQVTVSS
notes: sdAb from a naive llama phage library; also called 420; sdAb420
For B2, the FACS binding data [1] was 98.6, the Octet signal [2] was -0.0931 and the binding result (CD33 on MOLM-13 cells) was “binds”. It also gave an Octet signal [36] of 0.2, an FACS binding data [3] of 98.7 and an FACS binding data [4] of 99.1. It also gave an FACS binding data [5] of 98.1, an FACS binding data [6] of 34.6 and an FACS binding data [7] of 99.1. The FACS binding data [8] was 72.4, the FACS binding data [9] was 98.5 and the FACS binding data [10] was 97.8. It also gave an FACS binding data [11] of 99.5, an FACS binding data [12] of 98.7 and an FACS binding data [13] of 98.7. For the same binder, the FACS binding data [14] was 99.1, the FACS binding data [15] was 98.8 and the FACS binding data [16] was 99.6. It also gave an FACS binding data [17] of 98.9, an FACS binding data [18] of 99.1 and an FACS binding data [19] of 0.15. It also gave an FACS binding data [20] of 99.4, an FACS binding data [22] of 98.4 and an FACS binding data [23] of 98.9. It also gave an FACS binding data [24] of 91.5, an Octet signal [25] of 0.0276 and an Octet signal [26] of 0.376. It also gave an Octet signal [27] of 0.139, an Octet signal [28] of -0.124 and an Octet signal [29] of 0.457. It also gave an Octet signal [30] of -0.094, an FACS binding data [31] of 74.8 and an FACS binding data [32] of 98.3. The FACS binding data [33] was 8.64, the Octet signal [34] was 0.183 and the Octet signal [35] was 0.579.

B3: sdCD33_6 (VHH)
VHH: EVQLVESGGGLVQPRGSLRLSCVVSGSMSSIYSMSWYRQPPGKQRELVAHITTTGTTNYIDSVKGRFTISIDNDINVIYLQMNTLKPEDTAVYYCNAGLKAGPGPRLDYWGLGTQVTVSS
notes: sdAb from a naive llama phage library; also called 416; sdAb416
B3 was tested, and the FACS binding data [1] was 98.8, the Octet signal [2] was 0.22 and the binding result (CD33 on MOLM-13 cells) was “binds”. It also gave an Octet signal [36] of 0.376, an FACS binding data [3] of 99.1 and an FACS binding data [4] of 99. The FACS binding data [5] was 98.9, the FACS binding data [6] was 99.1 and the FACS binding data [7] was 98.6. For the same binder, the FACS binding data [8] was 45.1, the FACS binding data [9] was 80.8 and the FACS binding data [10] was 99.3. For the same binder, the FACS binding data [11] was 99, the FACS binding data [12] was 94.3 and the FACS binding data [13] was 99. For the same binder, the FACS binding data [14] was 99.1, the FACS binding data [15] was 99.2 and the FACS binding data [16] was 99.6. The FACS binding data [17] was 98.9, the FACS binding data [18] was 99.8 and the FACS binding data [19] was 0.24. The FACS binding data [20] was 99.6, the Octet signal [21] was 0.34 and the FACS binding data [22] was 1.25. The FACS binding data [23] was 98.7, the FACS binding data [24] was 96.6 and the Octet signal [25] was 0.514. The Octet signal [26] was 0.456, the Octet signal [27] was 0.229 and the Octet signal [28] was 0.261. The Octet signal [29] was 0.697, the FACS binding data [31] was 98.6 and the FACS binding data [32] was 97.9. The FACS binding data [33] was 98.9, the Octet signal [34] was 0.438 and the Octet signal [35] was 0.565.
